Data: the supplement of paper PMC10724198
± gives the standard deviation of the averaged measurements.

Each sequence was assayed on Saccharomyces cerevisiae (assay: protein stability index of tFT-peptide fusion (C-terminal peptide) (PSI (0-1 scale)); higher = more stable (slower turnover)). Details: genetic background: wild type; temperature: 30 C.
Method: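 Multiplexed protein stability (MPS) profiling in S. cerevisiae. Random 12-aa peptides (tFT-X12 library) are fused to the C-terminus of a sfGFP-mCherry tandem fluorescent timer, after mCherry and a GGGS linker. Cells are FACS-sorted into 8 mCherry/sfGFP bins and deep-sequenced. The protein stability index (PSI) is the read-weighted bin average, scaled from 0 (unstable) to 1 (stable). Only peptides with >10 reads are reported; cells were grown at 30 °C in SC-His with glucose.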
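Further: PSI is a weighted mean of sequencing reads over stability bins, variants kept only with over 10 reads, mCherry proximal and sfGFP distal, peptide attached via GGGS linker.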

PCRLTRSPRTLP and PPSSRPPVRSPP are within error of each other in protein stability index: 0.689 ± 0.1 for the first, 0.6903 ± 0.0014 for the second.

RGARTGGGRDGS and LYLKKIQQGIIK are within error of each other in protein stability index: 0.705 ± 0.025 for the first, 0.69 ± 0.039 for the second.

AAGLNSWLRERW and YVARRRPHPTGP are within error of each other in protein stability index: 0.805 ± 0.032 for the first, 0.778 ± 0.17 for the second.

TDCAPRGGRWKR and FIKSRRLCCVNL are within error of each other in protein stability index: 0.656 ± 0.14 for the first, 0.663 ± 0.032 for the second.

VSRGIFSGRGGV and RKEQRTERKSQK are within error of each other in protein stability index: 0.736 ± 0.018 for the first, 0.721 ± 0.066 for the second.

First: APLLTRRLPTAH
Second: ENPIASQWVRRY
The protein stability index of the first is higher: 0.785 ± 0.025 for the first, 0.6737 ± 0.0039 for the second.

Compared with RLARAPTQPRLS, PLSPRHVSPPLL is higher in protein stability index: 0.67 ± 0.062 for the first, 0.778 ± 0.045 for the second.

GGSNEKARGTGR and LFLDSTSTLPAP are within error of each other in protein stability index: 0.6544 ± 0.00083 for the first, 0.662 ± 0.028 for the second.

VFLTLDVFPSSP and ARIRDSPVIKTV are within error of each other in protein stability index: 0.647 ± 0.17 for the first, 0.672 ± 0.019 for the second.

Going from DIEFGLSTVVCH to GLVGLSLSSCGR, the protein stability index rises from 0.5099 ± 0.0046 to 0.653 ± 0.088.

Going from CPAPCPPLPPHV to PYTPRSTSPPPL, the protein stability index rises from 0.71997 ± 0.00064 to 0.7702 ± 0.0066.

Going from YGGLFFLVSLPP to SPSQRPLPSISP, the protein stability index rises from 0.566 ± 0.0082 to 0.718 ± 0.01.

PLVPPESPRSQV and SCTGGLVSVRGV are within error of each other in protein stability index: 0.6564 ± 0.0034 for the first, 0.666 ± 0.023 for the second.

RMKKYKYELDLN and GVGGGMGMGERW are within error of each other in protein stability index: 0.659 ± 0.019 for the first, 0.788 ± 0.18 for the second.

Going from PPPLSPPPPPRP to PVFDSRDRTFSH, the protein stability index rises from 0.6643 ± 0.0031 to 0.713 ± 0.042.

Compared with APPPRLAPTLSS, SPTIRPDESPVQ is lower in protein stability index: 0.775 ± 0.014 for the first, 0.6893 ± 0.0067 for the second.

WAGVTLRLRSAV and LLRFVGVRVRGA are within error of each other in protein stability index: 0.682 ± 0.055 for the first, 0.646 ± 0.094 for the second.

CTRGVVSPKLFV and EIRPRPYLCERF are within error of each other in protein stability index: 0.786 ± 0.17 for the first, 0.7253 ± 0.0064 for the second.

Going from FVVVLSPLVILQ to FVCLRWAVGLGG, the protein stability index rises from 0.5344 ± 0.0049 to 0.6204 ± 0.0013.

First: YVGGGAGVLLVL
Second: PPPLPALRPPSH
The protein stability index of the first is lower: 0.623 ± 0.014 for the first, 0.7193 ± 0.0013 for the second.

PSGAHLAHLLWL and TRERRQAAGGGT are within error of each other in protein stability index: 0.719 ± 0.053 for the first, 0.665 ± 0.055 for the second.

AVRDGSGCQCVG and WVGAVVGAGGRW are within error of each other in protein stability index: 0.6797 ± 0.0012 for the first, 0.614 ± 0.089 for the second.

Compared with IICDIFYCSTVS, APTPPPRISAWL is higher in protein stability index: 0.644 ± 0.01 for the first, 0.687 ± 0.019 for the second.

LRLATTLFPLSF and KQQTPVQNKDLR are within error of each other in protein stability index: 0.797 ± 0.12 for the first, 0.71399 ± 0.0006 for the second.

TLTDCRKKCGRV and PPQLSRHVSTRP are within error of each other in protein stability index: 0.715 ± 0.097 for the first, 0.754 ± 0.0084 for the second.

LPSKSTVALGPL and SGGGVGGQVAVG are within error of each other in protein stability index: 0.633 ± 0.046 for the first, 0.715 ± 0.087 for the second.

Going from PPPPPLHPPPPL to LPPLPPRSPPPP, the protein stability index rises from 0.605 ± 0.056 to 0.731 ± 0.02.

VRRRANVRVLRD and PSGHQAPEMQYL are within error of each other in protein stability index: 0.688 ± 0.077 for the first, 0.667 ± 0.022 for the second.

Going from SSPSPPSSSSFP to GSPAVACSSPFF, the protein stability index rises from 0.639 ± 0.028 to 0.754 ± 0.073.

Going from ILCLAPLSCYPV to TPRYVGLIKINK, the protein stability index falls from 0.832 ± 0.055 to 0.676 ± 0.03.

Compared with PPPPPTFPPPRS, CGGGRSTAWERS is lower in protein stability index: 0.817 ± 0.025 for the first, 0.63 ± 0.015 for the second.

RRVPVVSRSGGG and TVLRPVLCCFFV are within error of each other in protein stability index: 0.697 ± 0.043 for the first, 0.698 ± 0.015 for the second.

Compared with QIIRKKSKVPTH, GVVGGVGGFFGC is higher in protein stability index: 0.686 ± 0.057 for the first, 0.754 ± 0.0013 for the second.

Compared with PVSNVFDLTGMT, FLGLSYYRLPVG is lower in protein stability index: 0.683 ± 0.021 for the first, 0.606 ± 0.046 for the second.

First: PPPLLCPSSAPP
Second: LRLPAPPLASAC
The protein stability index of the first is higher: 0.783 ± 0.087 for the first, 0.596 ± 0.006 for the second.

Compared with PPHLPPPPPVPA, FPSTPRPPLPPP is higher in protein stability index: 0.5751 ± 0.0052 for the first, 0.668 ± 0.014 for the second.

Sequence RGTWSLFYAFLD has a protein stability index of 0.578 ± 0.035.
